From publication PMC12019227, “Phase separation of hnRNPA1 and TERRA regulates telomeric stability”

Tests used:
UP1 R146A = UP1 R146A (human, UniProt P09651 1-196, R146A); test: ITC; ITC: 20 mM Tris-HCl pH 7.5, 150 mM NaCl, 20 C; protein 160 uM in syringe, RNA 10 uM in cell; conditions: protein: recombinant; tags: C-terminal His6; single strand; crystal has 2 antiparallel strands
UP1 K113A = UP1 K113A (human, UniProt P09651 1-196, K113A); test: as above; conditions: protein: recombinant; tags: C-terminal His6; single strand; crystal has 2 antiparallel strands
UP1 K113A, sequence (P09651 1-196 K113A): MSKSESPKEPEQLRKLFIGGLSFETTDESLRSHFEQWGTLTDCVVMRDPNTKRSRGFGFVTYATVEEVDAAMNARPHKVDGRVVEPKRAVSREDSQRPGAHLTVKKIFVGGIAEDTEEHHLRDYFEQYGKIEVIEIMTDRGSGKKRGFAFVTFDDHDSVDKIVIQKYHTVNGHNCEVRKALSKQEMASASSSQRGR

UP1 R82A/K113A = UP1 R82A/K113A (human, UniProt P09651 1-196, R82A;K113A); test: as above; conditions: protein: recombinant, tags: C-terminal His6, single strand
UP1 R82A/K113A, sequence (P09651 1-196 R82A/K113A): as the sequence (P09651 1-196 K113A) above, with R82A counted along it

UP1 Q12A/G147A = UP1 Q12A/G147A (human, UniProt P09651 1-196, Q12A;G147A); test: as above; conditions: protein: recombinant, tags: C-terminal His6, single strand
UP1 Q12A/G147A, sequence (P09651 1-196 Q12A/G147A): as the sequence (P09651 1-196 K113A) above, with Q12A, A113K, G147A counted along it

UP1 R55A = UP1 R55A (human, UniProt P09651 1-196, R55A); test: as above; conditions: protein: recombinant; tags: C-terminal His6; single strand; crystal has 2 antiparallel strands
UP1 R55A, sequence (P09651 1-196 R55A): as the sequence (P09651 1-196 K113A) above, with R55A, A113K counted along it

UP1 D42R = UP1 D42R (human, UniProt P09651 1-196, D42R); test: as above; conditions: protein: recombinant; tags: C-terminal His6; single strand; crystal has 2 antiparallel strands
UP1 D42R, sequence (P09651 1-196 D42R): as the sequence (P09651 1-196 K113A) above, with D42R, A113K counted along it

UP1 V90A/R92A/S95A = UP1 V90A/R92A/S95A (human, UniProt P09651 1-196, V90A;R92A;S95A); test: as above; conditions: protein: recombinant; tags: C-terminal His6; single strand; crystal has 2 antiparallel strands
UP1 V90A/R92A/S95A, sequence (P09651 1-196 V90A/R92A/S95A): as the sequence (P09651 1-196 K113A) above, with V90A, R92A, S95A, A113K counted along it

UP1 wt = UP1 wt (human, UniProt P09651 1-196); test: as above; conditions: protein: recombinant, tags: C-terminal His6, chain copies: 2, single strand
UP1 wt, sequence (P09651 1-196): as the sequence (P09651 1-196 K113A) above, with A113K counted along it

UP1 R82A = UP1 R82A (human, UniProt P09651 1-196, R82A); test: as above; conditions: protein: recombinant; tags: C-terminal His6; single strand; crystal has 2 antiparallel strands
UP1 R82A, sequence (P09651 1-196 R82A): as the sequence (P09651 1-196 K113A) above, with R82A, A113K counted along it

UP1 D42R/R146A [1] = biological target: T1, UP1 D42R/R146A (human, UniProt P09651 1-196, D42R;R146A); test: ITC; text: could not bind RNA at all (conflicts with table); ITC: 20 mM Tris-HCl pH 7.5, 150 mM NaCl, 20 C; protein 160 uM in syringe, RNA 10 uM in cell; conditions: protein: recombinant; tags: C-terminal His6; single strand; crystal has 2 antiparallel strands
T1 sequence (P09651 1-196 D42R/R146A): as the sequence (P09651 1-196 K113A) above, with D42R, A113K, R146A counted along it

UP1 D42R/R146A [2] = biological target: T1, UP1 D42R/R146A; test: ITC; ITC: 20 mM Tris-HCl pH 7.5, 150 mM NaCl, 20 C; protein 160 uM in syringe, RNA 10 uM in cell; conditions: protein: recombinant; tags: C-terminal His6; single strand
[3] = crystal has 2 antiparallel strands

UP1 R146A, sequence (P09651 1-196 R146A): as the sequence (P09651 1-196 K113A) above, with A113K, R146A counted along it

| Binder | Kd (UP1 R146A) | Kd (UP1 K113A) | Kd (UP1 R82A/K113A; [3]) | Kd (UP1 Q12A/G147A; [3]) | Kd (UP1 R55A) | Kd (UP1 D42R) | Kd (UP1 V90A/R92A/S95A) | Kd (UP1 wt; [3]) | Kd (UP1 R82A) | Kd (UP1 D42R/R146A [1]) | Kd (UP1 D42R/R146A [2]) | Kd (UP1 R82A/K113A) | Kd (UP1 Q12A/G147A) | Kd (UP1 wt) |
| --- | --- | --- | --- | --- | --- | --- | --- | --- | --- | --- | --- | --- | --- | --- |
| UUAGGGUUAGGG (ssRNA) [TERRA (UUAGGG)2] | 2120 ± 500 nM | 300 ± 20 nM | 770 ± 160 nM | 120 ± 20 nM | 520 ± 40 nM | 630 ± 120 nM | 1410 ± 120 nM | 270 ± 20 nM | 460 ± 70 nM | 2260 ± 310 nM | – | – | – | – |
| TTAGGGTTAGGG (ssDNA) [Telo DNA (TTAGGG)2] | – | – | – | – | – | – | – | – | – | – | 4030 ± 1020 nM | 100 ± 30 nM | 210 ± 80 nM | 80 ± 20 nM |
